Laboratory results reported in publication PMC3226724.

Target: T1, PriB (Escherichia coli, UniProt P07013 1-104)
T1 sequence: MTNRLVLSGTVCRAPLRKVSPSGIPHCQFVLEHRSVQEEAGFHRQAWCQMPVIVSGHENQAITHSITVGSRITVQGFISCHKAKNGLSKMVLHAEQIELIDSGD
Assay: sedimentation equilibrium

TTTTTTTTTTTTTTTTTTTTTTTTTT (ssDNA) [5'Fl-dT(pT)25 (called 27-mer)]
binding result: binds
